US9498540B2, “Cell proliferation inhibitors and conjugates thereof” (NOVARTIS AG, priority 2013, dated 2016)
Values joined by “and” are separate entries in the source; they are usually repeats but may differ in a detail not shown here. Identical values can stand only once.

Tests used:
[1] = Aggregation of immunoconjugates by analytical size exclusion chromatography; type: physicochemical; settings: conjugate with trastuzumab (TBS); Superdex 200 5/150 GL run in PBS
Protocol: Aggregation was measured by analytical size exclusion chromatography (Superdex 200 5/150 GL run in PBS). It was observed that the extent of aggregation depends on the Linker-Payload and the DAR. […] Table 4 also indicates whether the linking group for each conjugate is stable or cleavable.

[2] = Average drug loading (DAR, drug to antibody ratio) from LC/MS of reduced, deglycosylated conjugates; settings: conjugate with trastuzumab (TBS); average number of payload molecules per antibody
From the text: The immunoconjugates prepared as described above were characterized by LC/MS, as illustrated in FIG. 1 for one immunoconjugate. […] The conjugates were characterized in terms of average drug loading for a sample (DAR, drug to antibody ratio) and aggregation (expressed in %).
The DAR value is extrapolated from LC-MS data for reduced and deglycosylated samples. […] HPLC separates the antibody into light and heavy chains, and separates the heavy chain (HC) and light chain (LC) according to the number of Linker-Payload groups per chain. Mass spectral data enables identification of the component species in the mixture, e.g., LC, LC+1, LC+2, HC, HC+1, HC+2, etc. From the average loading on the LC and HC chains, the average drug to antibody ratio (DAR) can be calculated for an ADC (see FIG. 1B). The DAR for a given conjugate sample represents the average number of drug (payload) molecules attached to a tetrameric antibody containing two light chains and two heavy chains.

Row | SMILES | Aggregation % [1] | DAR [2]
1 | CC(C)(C)[C@H](c1nc(-c2cc(F)ccc2F)nn1Cc1ccccc1)N(CC[C@@H](N)CF)C(=O)N1CCSCC1 [Compound 43] | 7.7% | 6.1
2 | O=C(N1C[C@@H](O)[C@@H](O)C1)N(C[C@@H]1CNC[C@@H]1F)[C@@H](c1nc(-c2cc(F)ccc2F)cn1Cc1ccccc1)C1CCOCC1 [Compound 56] | 45.1% | 4.1
3 | C[C@H](O)C(=O)N(CC[C@H](N)CF)[C@@H](c1nc(-c2cc(F)ccc2F)cn1Cc1ccccc1)C(C)(C)C [Compound 71] | 2.6% | 2.9
4 | CNC(=O)N(C[C@@H]1CNC[C@@H]1F)[C@@H](c1nc(-c2cc(F)ccc2F)cn1Cc1cccc(F)c1)C(C)(C)C [Compound 40] | 9.3% | 4
5 | CC(C)(C)[C@@H](NC[C@@H]1CNC[C@@H]1F)c1nc(-c2cc(F)ccc2F)nn1Cc1cccc(F)c1 [Compound 33] | 29.8% | 6.3
6 | C[C@H](O)C(=O)N(CC[C@H](N)CF)[C@@H](c1nc(-c2cc(F)cc(F)c2F)cn1Cc1ccccc1)C(C)(C)C [Compound 62] | 48.7% | 2
7 | CC(C)(C)[C@H](c1nc(-c2cc(F)ccc2F)nn1Cc1ccccc1)N(CCCN)C(=O)N1CCN(S(C)(=O)=O)CC1 [Compound 44] | 41% | 4.8
8 | C[C@H](O)C(=O)N(CC[C@H](N)CF)[C@@H](c1nc(-c2cc(F)ccc2F)cn1Cc1ccccc1)C1CCS(=O)(=O)CC1 [Compound 37] | 68% | 5.6
9 | CC(C)(C)[C@H](c1nc(-c2cc(F)ccc2F)cn1Cc1ccccc1)N(CC[C@@H](N)CF)C(=O)c1cccnc1 [Compound 51] | 56.5% | 5.6
10 | C[C@H](O)C(=O)N(C[C@H]1CCNC1)[C@@H](c1nc(-c2cc(F)ccc2F)cn1Cc1ccccc1)C1CCOCC1 [Compound 32] | 1.4% | 5.2
11 | C[C@H](O)C(=O)N(C[C@@H]1CNC[C@@H]1F)[C@@H](c1nc(-c2cc(F)ccc2F)cn1Cc1ccccc1)C(C)(C)C [Compound 72] | 45% | 5.2
12 | CC(C)(C)[C@H](c1nc(-c2cc(F)ccc2F)nn1Cc1ccccc1)N(CCCN)C(=O)N1CCOCC1 [Compound 61] | 46.1% | 2
13 | CC(C)(C)[C@H](c1nc(-c2cc(F)ccc2F)cn1Cc1ccccc1)N(CC[C@H](N)CF)C(=O)CO [Compound 2] | 43.8% | 4.2
14 | CC(C)(C)[C@H](c1nc(-c2cc(F)ccc2F)cn1Cc1ccccc1)N(CC[C@H](N)CF)C(=O)N1CCN(S(C)(=O)=O)CC1 [Compound 42] | 2.4% | 6
15 | C[C@@H]1CN(C(=O)N(CC[C@H](N)CF)[C@@H](c2nc(-c3cc(F)cc(F)c3)nn2Cc2ccccc2)C(C)(C)C)C[C@H](C)O1 [Compound 52] | 47.4% | 5.2
16 | COC[C@@H](N)CCN(C(=O)[C@H](C)O)[C@@H](c1nc(-c2cc(F)ccc2F)cn1Cc1ccccc1)C(C)(C)C [Compound 60] | 71.7% | 6.4
17 | O=C([C@H]1CNCCO1)N(C[C@@H]1CNC[C@@H]1F)[C@@H](c1nc(-c2cc(F)ccc2F)cn1Cc1ccccc1)C1CCOCC1 [Compound 69] | 4.9% | 6
18 | C[C@@H](CO)NC(=O)N(C[C@@H]1CNC[C@@H]1F)[C@@H](c1nc(-c2cc(F)ccc2F)cn1Cc1ccccc1)C1CCOCC1 [Compound 17] | 55% | 5.8
19 | COC(=O)N(C[C@@H](F)CN)[C@@H](c1nc(-c2cc(F)ccc2F)cn1Cc1ccccc1)C(C)(C)C [Compound 41] | 23.8% | 4.5
20 | C[C@H](O)C(=O)N(C[C@@H]1CNC[C@@H]1F)[C@@H](c1nc(-c2cc(F)ccc2F)cn1Cc1cccc(F)c1)C(C)(C)C [Compound 14] | 1.5% | 2.8
21 | CSCCC(=O)N(C[C@@H]1CNC[C@@H]1F)[C@@H](c1nc(-c2cc(F)ccc2F)cn1Cc1cccc(F)c1)C(C)(C)C [Compound 9] | 84.9% | 6
22 | CSCCC(=O)N(C[C@@H]1CNC[C@@H]1F)[C@@H](c1nc(-c2cc(F)ccc2F)cn1Cc1ccccc1)C1CCOCC1 [Compound 39] | 68.5% | 3.2
23 | C[C@H](O)C(=O)N(C[C@@H]1CNC[C@@H]1F)[C@@H](c1nc(-c2cc(F)ccc2F)cn1Cc1ccccc1)C1CCS(=O)(=O)CC1 [Compound 38] | 67.2% | 5.8
24 | CNC(=O)N(CC[C@@H](N)CF)[C@@H](c1nc(-c2cc(F)ccc2F)cn1Cc1ccccc1)C(C)(C)C [Compound 27] | 12.1% | 3.4
25 | O=C(CI)N(C[C@@H]1CNC[C@@H]1F)[C@@H](c1nc(-c2cc(F)ccc2F)cn1Cc1ccccc1)C1CCOCC1 [Compound 25] | 60.8% | 2.2
26 | O=C(CCS)N(C[C@@H]1CNC[C@@H]1F)[C@@H](c1nc(-c2cc(F)ccc2F)cn1Cc1ccccc1)C1CCOCC1 [Compound 15] | 3.5% | 3.7
27 | C[C@H](O)C(=O)N(C[C@@H]1CNC[C@H]1O)[C@@H](c1nc(-c2cc(F)ccc2F)cn1Cc1ccccc1)C1CCOCC1 [Compound 48] | 63.8% and 35.3% | 4.4 and 5.2
28 | C[C@@H](CN)NC(=O)N(C[C@@H]1CNC[C@@H]1F)[C@@H](c1nc(-c2cc(F)ccc2F)cn1Cc1ccccc1)C1CCOCC1 [Compound 19] | 74.6% | 4.7
